B1: HA-tagged RasGRF1 fragment, amino acids 1-720 (other)
chain: MQKAIRLNDGHVVSLGLLAQRDGTRKGYLSKRSSDNPKWQTKWFALLQNLLFYFESDSSSRPSGLYLLEGSICKRMPSPKRGTSSKESDKQHHYFTVNFSNDSQKSLELRTDDSKDCDEWVAAIARASYKILATEHEALMQKYLHLLQVVETEKTVAKQLRQQLEDGEVEIERLKAEIANLIKDNERIQSNQLVAPEDEDSDIKKIKKVQSFLRGWLCRRKWKNIIQDYIRSPHADSMRKRNQVVFSMLEAEAEYVQQLHILVNNFLRPLRMAASSKKPPITHDDVSSIFLNSETIMFLHQIFYQGLKARIASWPTLVLADLFDILLPMLNIYQEFVRNHQYSLQILAHCKQNRDFDKLLKQYEAKPDCEERTLETFLTYPMFQIPRYILTLHELLAHTPHEHVERNSLDYAKSKLEELSRVMHDEVSETENIRKNLAIERMITEGCEILLDTSQTFVRQGSLIQVPMSEKGKINKGRLGSLSLKKEGERQCFLFSKHLIICTRGSGSKLHLTKNGVISLIDCTLLDDPENMDDDGKGQEVDHLDFKIWVEPKDSPPFTVILVASSRQEKAAWTSDIIQCVDNIRCNGLMMNAFEENSKVTVPQMIKSDASLYCDDVDIRFSKTMNSCKVLQIRYASVERLLERLTDLRFLSIDFLNTFLHSYRVFTDAVVVLDKLISIYKKPITAIPARSLELLFSSSHNTKLLYGDAPKSPRASRKFS
notes: In vitro translated, 35S-labelled; also called N-terminal portion of RasGRF1; not shown: HA tag encoded by the 5' primer
B2: full-length mouse RasGRF1 (other, UniProt P27671 1-1262, looked up)
chain: MQKAIRLNDGHVVTLGLLAQKDGTRKGYLSKRSADNPKWQTKWFALLQNLLFYFESDSSPRPSGLYLLEGSICKRAPSPKRGTSSKESGEKQQHYFTVNFSNDSQKTLELRTEDAKDCDEWVAAIARASYKILATEHEALMQKYLHLLQVVETEKTVAKQLRQQLEDGEVEIERLKTEVTITNLIKDNDRIQSSNKAGSADDEDSDIKKIKKVQSFLRGWLCRRKWKNIIQDYIRSPHADSMRKRNQVVFSMLEAEAEYVQQLHILVNNFLRPLRMAASSKKPPITHDDVSSIFLNSETIMFLHQIFYQGLKARISSWPTLVLADLFDILLPMLNIYQEFVRNHQYSLQILAHCKQNRDFDKLLKQYEAKPDCEERTLETFLTYPMFQIPRYILTLHELLAHTPHEHVERNSLDYAKSKLEELSRIMHDEVSETENIRKNLAIERMITEGCEILLDTSQTFVRQGSLMQMSLSEKSKSSRGRLGSLSTKKEGERQCFLFSKHLIICTRGSGGKLHLTKNGVISLIDCTLLDEPENLDDEAKGAGPEIEHLEFKIGVEPKDSLPFTVILVASTRQEKAAWTSDIIQCVDNIRCNGLMMNAFEENSKVTVPQMIKSDASLYCDDVDIRFSKTMNSCKVLQIRYASVERLLERLTDLRFLSIDFLNTFLHSYRVFTNAMVVLDKLINIYRKPMSAIPARSLELLFSSSHNAKLLYGDAPKSPRASRKFSSPPPLAIGTSSPSRRRKLSLNIPIITGGKALELASLGCSSDSYANIHSPISPFGKTTLDTGKLCMASSLPKTPEEIDVPATIPEKPGELSASRKHSSDVLKEESEDDQNHSDEDNTEVSPVKSPPTPKSFLNRTITEFPFFNYNNGILMTTCRDLVDNNRSTLSATSAFAIATAGANEGPSNKEVFRRMSLANTGFSSDQRNIDKEFVIRRAATNRVLNVLRHWVTKHTQDFDTDDTLKYRVICFLEEVMHDPDLLTQERKAAANIIRTLTLEETTEQHSMLEEVILMTEGVKTEPFENHPALEIAEQLTLLDHLVFKSIPYEEFFGQGWMKAEKYERTPYIMKTTKHFNHVSNFIASEIIRNEDISARASAIEKWVAVADICRCLHNYNAVLEITSSINRSAIFRLKKTWLKVSKQTKSLLDKLQKLVSSDGRFKNLRESLRNCDPPCVPYLGMYLTDLVFIEEGTPNYTEDGLVNFSKMRMISHIIREIRQFQQTTYKIDPQPKVIQYLLDESFMLDEESLYESSLLIEPKLPT
notes: Full-length; also called in vitro translated RasGRF1; mouse RasGRF1 in pcDNA3
B3: AU1-tagged NR2B fragment, amino acids 1136-1310 (other)
chain: QFRTKENSPHWEHVDLTDIYKERSDDFKRDSVSGGGPCTNRSHLKHGTGEKHGVVGGVPAPWEKNLTNVDWEDRSGGNFCRSCPSKLHNYSSTVAGQNSGRQACIRCEACKKAGNLYDISKDNSLQELDQPAAPVAVTSNASSTKYPQSPTNSKAQKKNRNKLRRQHSYDTFVDL
notes: In vitro translated, 35S-labelled; also called distal portion of the bait; not shown: AU1 tag encoded by the 5' primer
B4: HA-tagged RasGRF1 fragment, amino acids 835-913 (other)
chain: TPKSFRNRITQEFPLFNYNSGIMMTCRDLMDSNRSPLSATSAFAIATAGANESPANKEIYRRMSLANTGYSSDQRNIDK
notes: In vitro translated, 35S-labelled; not shown: HA tag encoded by the 5' primer
B5: HA-tagged RasGRF1 fragment, amino acids 714-841 (other)
chain: RASRKFSSPPPLAIGTSSPVRRRKLSLNIPIITGGKALELASLGCPSDGYTNIHSPISPFGKTTLDTSKLCVASSLTRTPEEIDMTTLEESSGFRKPTSDILKEESDDDQSDVDDTEVSPPTPKSFRN
notes: as for B4

Experiment [1] deals with T1, in vitro translated full-length NR2B (Rattus norvegicus (Rat), UniProt Q00960 1-1482, limits assumed).
T1 construct: Full-length, 35S-labelled, translated in vitro
T1 sequence (Q00960 other isoform, or with tags, fused parts or gaps limits assumed): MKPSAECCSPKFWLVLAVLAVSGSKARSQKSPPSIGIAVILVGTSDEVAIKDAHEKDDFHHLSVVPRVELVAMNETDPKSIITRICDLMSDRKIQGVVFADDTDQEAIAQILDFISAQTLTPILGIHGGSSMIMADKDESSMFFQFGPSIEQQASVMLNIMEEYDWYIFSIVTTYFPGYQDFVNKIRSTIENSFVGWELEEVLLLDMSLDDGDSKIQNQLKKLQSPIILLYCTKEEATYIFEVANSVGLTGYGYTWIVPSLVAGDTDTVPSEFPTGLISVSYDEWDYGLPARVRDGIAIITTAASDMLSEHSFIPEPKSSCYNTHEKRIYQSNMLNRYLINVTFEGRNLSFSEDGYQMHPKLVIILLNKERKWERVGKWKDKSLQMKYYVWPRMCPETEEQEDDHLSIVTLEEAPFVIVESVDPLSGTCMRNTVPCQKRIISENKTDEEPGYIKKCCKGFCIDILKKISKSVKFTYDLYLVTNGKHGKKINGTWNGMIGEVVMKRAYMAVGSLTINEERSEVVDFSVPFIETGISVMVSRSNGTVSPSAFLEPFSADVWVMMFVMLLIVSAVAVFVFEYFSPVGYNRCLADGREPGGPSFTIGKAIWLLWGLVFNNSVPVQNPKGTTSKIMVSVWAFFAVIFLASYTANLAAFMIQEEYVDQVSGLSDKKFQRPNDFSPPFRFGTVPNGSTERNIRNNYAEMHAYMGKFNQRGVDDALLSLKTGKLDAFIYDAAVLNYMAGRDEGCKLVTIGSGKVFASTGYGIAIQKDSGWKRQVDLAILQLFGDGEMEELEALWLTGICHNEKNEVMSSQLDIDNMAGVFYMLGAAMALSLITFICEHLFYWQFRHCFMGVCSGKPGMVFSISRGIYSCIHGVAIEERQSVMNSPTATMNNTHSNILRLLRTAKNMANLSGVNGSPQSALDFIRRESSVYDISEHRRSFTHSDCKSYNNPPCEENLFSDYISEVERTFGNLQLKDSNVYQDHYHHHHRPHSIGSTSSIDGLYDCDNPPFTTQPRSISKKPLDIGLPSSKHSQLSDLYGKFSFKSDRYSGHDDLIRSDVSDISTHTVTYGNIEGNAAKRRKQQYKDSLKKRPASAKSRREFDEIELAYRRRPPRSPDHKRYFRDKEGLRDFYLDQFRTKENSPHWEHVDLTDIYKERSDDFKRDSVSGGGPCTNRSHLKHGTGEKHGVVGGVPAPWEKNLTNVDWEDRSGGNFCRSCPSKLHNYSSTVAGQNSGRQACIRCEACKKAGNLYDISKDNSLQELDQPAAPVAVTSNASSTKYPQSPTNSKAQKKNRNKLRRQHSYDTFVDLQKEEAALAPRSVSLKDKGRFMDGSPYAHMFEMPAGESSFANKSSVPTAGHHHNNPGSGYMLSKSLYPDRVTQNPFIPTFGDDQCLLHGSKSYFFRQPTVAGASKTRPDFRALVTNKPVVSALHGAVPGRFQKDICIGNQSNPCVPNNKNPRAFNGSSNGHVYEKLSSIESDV
As to the kind of experiment: co-immunoprecipitation of in vitro translated proteins with anti-HA. As to the method:
For in vitro binding experiments, equimolar amounts of in vitro translated ³⁵S-labeled proteins (calculated from radioactivity of the excised protein band and cysteine content in the specific fragment) were incubated with a 3-fold molar excess of translated RasGRF1 for 30 min at 30° C., diluted with RIPA buffer, and immunoprecipitated with anti-HA-agarose (Santa Cruz). In competition experiments, RasGRF1 and NR2B were immunoprecipitated for 2 hr at 4° C. from solubilized rat brain microsomes in the presence of 10 μM NusA, 10 μM NusA-RasGRF1-BD, or 5 μM NusA-NR2B-BD.

For experiment [2], the target named is T2, GFP rat NR2A (expressed in HEK293T cells) (rat, UniProt Q00959 23-1464).
T2 construct: whole, on cells; not shown: GFP
T2 sequence (Q00959 23-1464): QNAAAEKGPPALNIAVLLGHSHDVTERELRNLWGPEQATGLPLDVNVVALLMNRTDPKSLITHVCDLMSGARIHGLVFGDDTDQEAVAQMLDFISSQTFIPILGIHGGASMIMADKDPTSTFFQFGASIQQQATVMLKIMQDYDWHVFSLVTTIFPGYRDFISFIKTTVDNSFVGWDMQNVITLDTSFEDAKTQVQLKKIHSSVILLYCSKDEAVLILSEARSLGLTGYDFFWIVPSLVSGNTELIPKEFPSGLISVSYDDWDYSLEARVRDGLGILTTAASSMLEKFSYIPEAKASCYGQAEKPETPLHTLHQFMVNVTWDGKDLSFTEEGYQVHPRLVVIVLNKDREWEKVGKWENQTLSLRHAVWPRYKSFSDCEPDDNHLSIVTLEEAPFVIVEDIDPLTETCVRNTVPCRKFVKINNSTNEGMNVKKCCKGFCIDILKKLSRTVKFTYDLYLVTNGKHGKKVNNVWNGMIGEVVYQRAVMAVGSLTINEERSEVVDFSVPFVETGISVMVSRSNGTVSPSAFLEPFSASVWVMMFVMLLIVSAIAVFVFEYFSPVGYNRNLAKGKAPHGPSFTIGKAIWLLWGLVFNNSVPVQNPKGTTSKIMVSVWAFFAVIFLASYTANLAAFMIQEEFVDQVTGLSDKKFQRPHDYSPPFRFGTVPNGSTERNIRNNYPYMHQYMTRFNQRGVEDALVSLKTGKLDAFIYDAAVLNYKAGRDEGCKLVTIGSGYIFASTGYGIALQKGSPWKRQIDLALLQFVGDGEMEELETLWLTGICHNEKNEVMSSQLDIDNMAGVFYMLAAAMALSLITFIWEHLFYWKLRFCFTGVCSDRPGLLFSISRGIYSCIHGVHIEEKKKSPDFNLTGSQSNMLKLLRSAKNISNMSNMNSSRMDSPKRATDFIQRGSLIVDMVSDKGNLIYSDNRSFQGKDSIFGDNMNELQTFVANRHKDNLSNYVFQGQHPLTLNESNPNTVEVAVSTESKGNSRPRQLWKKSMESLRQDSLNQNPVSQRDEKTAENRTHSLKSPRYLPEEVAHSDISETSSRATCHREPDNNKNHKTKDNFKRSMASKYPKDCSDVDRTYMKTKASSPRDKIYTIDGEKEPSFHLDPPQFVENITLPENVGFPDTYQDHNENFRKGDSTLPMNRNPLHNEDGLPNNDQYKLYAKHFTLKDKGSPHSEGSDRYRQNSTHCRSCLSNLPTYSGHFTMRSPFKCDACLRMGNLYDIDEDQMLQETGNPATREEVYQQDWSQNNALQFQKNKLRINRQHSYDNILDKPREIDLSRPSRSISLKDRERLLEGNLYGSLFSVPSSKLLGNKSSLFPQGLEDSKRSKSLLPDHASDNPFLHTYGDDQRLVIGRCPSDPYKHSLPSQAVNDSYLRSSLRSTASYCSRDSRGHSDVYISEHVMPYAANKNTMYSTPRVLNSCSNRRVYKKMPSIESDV
As to the kind of experiment: co-immunoprecipitation from co-transfected HEK293T cells. Here is the method:
Transfected cells were solubilized in lysis buffer (100 mM Tris-Cl [pH 8.5], 500 mM NaCl, 1% Triton X-100) supplemented with corn plete protease inhibitor (Roche) and immunoprecipitated with NR2B (Santa Cruz, sc-9057), NR1, or NR2A (Chemicon) antibody (5 μg/ml), washed with lysis buffer, separated on SDS gel, and blotted on PVDF. Blots were probed with anti-RasGRF1 (Santa Cruz) and the appropriate NR subunit antibody. 6- to 8-week-old rat brain P2 microsomes were isolated and solubilized as described (Luo, J., et al. (1997) Mol. Pharmacol. 51, 79-86). 80 μg of solubilized protein were immunoprecipitated with NR2B, RasGRF1, or pooled rabbit IgG, and immunoprecipitated proteins were probed on Western blot with RasGRF1 and NR2B antibodies. All immunoprecipitation experiments were only taken as valid if repeated 3-5 times with similar results. Routine negative controls with antigen pre-absorption were carried out for antibodies used in immunoprecipitation experiments. Also, all immunoprecipitating antibodies were tested for the cross-reactivity with in vitro translated co-immunoprecipitated molecules.

In experiment [3] the target is B2. As to the kind of experiment: co-immunoprecipitation of in vitro translated proteins with AU1 antibody.

We go through five molecules from patent publication US20060035283A1 (CHILDREN S MEDICAL CENTER, published 2006).

B1: in experiment [1], the binding result is “no binding”.

Take B2: the binding result in experiment [2] is on record as “no binding”. Take B3: in experiment [3], the binding result was “no binding”. B4: in experiment [1], the binding result is recorded as “no binding”. Consider B5, for which the binding result in experiment [1] is “no binding”.
